{
  "source": "paper PMC8222357",
  "about": "“The structure of ORC–Cdc6 on an origin DNA reveals the mechanism of ORC activation by the replication initiator Cdc6” (Nature Communications, 2021)",
  "binders": {"B1": {"name": "Cdc6 (replication initiator), S. cerevisiae, wild type (natural protein)", "chain": "MSAIPITPTKRIRRNLFDDAPATPPRPLKRKKLQFTDVTPESSPEKLQFGSQSIFLRTKALLQKSSELVNLNSSDGALPARTAEYEQVMNFLAKAISEHRSDSLYITGPPGTGKTAQLDMIIRQKFQSLPLSLSTPRSKDVLRHTNPNLQNLSWFELPDGRLESVAVTSINCISLGEPSSIFQKIFDSFQDLNGPTLQIKNMQHLQKFLEPYHKKTTFVVVLDEMDRLLHANTSETQSVRTILELFLLAKLPTVSFVLIGMANSLDMKDRFLSRLNLDRGLLPQTIVFQPYTAEQMYEIVIQKMSSLPTIIFQPMAIKFAAKKCAGNTGDLRKLFDVLRGSIEIYELEKRFLLSPTRGSLNSAQVPLTPTTSPVKKSYPEPQGKIGLNYIAKVFSKFVNNNSTRTRIAKLNIQQKLILCTIIQSLKLNSDATIDESFDHYIKAITKTDTLAPLQRNEFLEICTILETCGLVSIKKTKCKGKTKRFVDKIDVDLDMREFYDEMTKISILKPFLH", "notes": "Cdc6, S. cerevisiae; also called yeast Cdc6; source: purified as described previously, with minor modifications (lysis buffer with 500 mM potassium phosphate)"}, "B2": {"name": "Orc5, subunit of S. cerevisiae ORC (natural protein)", "chain": "MNVTTPEVAFREYQTNCLASYISADPDITPSNLILQGYSGTGKTYTLKKYFNANPNLHAVWLEPVELVSWKPLLQAIARTVQYKLKTLYPNIPTTDYDPLQVEEPFLLVKTLHNIFVQYESLQEKTCLFLILDGFDSLQDLDAALFNKYIKLNELLPKDSKINIKFIYTMLETSFLQRYSTHCIPTVMFPRYNVDEVSTILVMSRCGELMEDSCLRKRIIEEQITDCTDDQFQNVAANFIHLIVQAFHSYTGNDIFALNDLIDFKWPKYVSRITKENIFEPLALYKSAIKLFLSTDDNLSENGQGESAITTNRDDLENSQTYDLSIISKYLLIASYICSYLEPRYDASIFSRKTRIIQGRAAYGRRKKKEVNPRYLQPSLFAIERLLAIFQAIFPIQGKAESGSLSALREESLMKANIEVFQNLSELHTLKLIATTMNKNIDYLSPKVRWKVNVPWEIIKEISESVHFNISDYFSDIHE", "notes": "Orc5, S. cerevisiae, as the Orc5 chain of m1; Stood in the assay as a subunit of the whole ORC; written on its own for the contacts seen in the structure; source: purified as part of ORC, as described previously with minor modifications"}, "B3": {"name": "Orc4, subunit of S. cerevisiae ORC (natural protein)", "chain": "MTISEARLSPQVNLLPIKRHSNEEVEETAAILKKRTIDNEKCKDSDPGFGSLQRRLLQQLYGTLPTDEKIIFTYLQDCQQEIDRIIKQSIIQKESHSVILVGPRQSYKTYLLDYELSLLQQSYKEQFITIRLNGFIHSEQTAINGIATQLEQQLQKIHGSEEKIDDTSLETISSGSLTEVFEKILLLLDSTTKTRNEDSGEVDRESITKITVVFIFDEIDTFAGPVRQTLLYNLFDMVEHSRVPVCIFGCTTKLNILEYLEKRVKSRFSQRVIYMPQIQNLDDMVDAVRNLLTVRSEISPWVSQWNETLEKELSDPRSNLNRHIRMNFETFRSLPTLKNSIIPLVATSKNFGSLCTAIKSCSFLDIYNKNQLSNNLTGRLQSLSDLELAILISAARVALRAKDGSFNFNLAYAEYEKMIKAINSRIPTVAPTTNVGTGQSTFSIDNTIKLWLKKDVKNVWENLVQLDFFTEKSAVGLRDNATAAFYASNYQFQGTMIPFDLRSYQMQIILQELRRIIPKSNMYYSWTQL", "notes": "Orc4, S. cerevisiae, as the Orc4 chain of m1; Stood in the assay as a subunit of the whole ORC; written on its own for the contacts seen in the structure; source: purified as part of ORC, as described previously with minor modifications"}},
  "experiment_in_all_cases": "cryo-EM structure; ORC first bound to 85 bp ARS1 origin dsDNA, then Cdc6 added (about 1 μM ORC:1.25 μM DNA:6.4 μM Cdc6), 5 mM ATPγS, 5 mM DTT, on ice; no cross-linking agent; maps at 3.3 and 3.6 Å",
  "settings_in_all_cases": "both partners purified",
  "key": {"[1]": {"target": "T1, Orc1, subunit of S. cerevisiae ORC (S. cerevisiae, UniProt P54784 1-914)", "T1 construct": "Orc1, S. cerevisiae, as the Orc1 chain of m1; Stood in the assay as a subunit of the whole ORC; written on its own for the contacts seen in the structure; source: purified as part of ORC, as described previously with minor modifications", "T1 sequence": "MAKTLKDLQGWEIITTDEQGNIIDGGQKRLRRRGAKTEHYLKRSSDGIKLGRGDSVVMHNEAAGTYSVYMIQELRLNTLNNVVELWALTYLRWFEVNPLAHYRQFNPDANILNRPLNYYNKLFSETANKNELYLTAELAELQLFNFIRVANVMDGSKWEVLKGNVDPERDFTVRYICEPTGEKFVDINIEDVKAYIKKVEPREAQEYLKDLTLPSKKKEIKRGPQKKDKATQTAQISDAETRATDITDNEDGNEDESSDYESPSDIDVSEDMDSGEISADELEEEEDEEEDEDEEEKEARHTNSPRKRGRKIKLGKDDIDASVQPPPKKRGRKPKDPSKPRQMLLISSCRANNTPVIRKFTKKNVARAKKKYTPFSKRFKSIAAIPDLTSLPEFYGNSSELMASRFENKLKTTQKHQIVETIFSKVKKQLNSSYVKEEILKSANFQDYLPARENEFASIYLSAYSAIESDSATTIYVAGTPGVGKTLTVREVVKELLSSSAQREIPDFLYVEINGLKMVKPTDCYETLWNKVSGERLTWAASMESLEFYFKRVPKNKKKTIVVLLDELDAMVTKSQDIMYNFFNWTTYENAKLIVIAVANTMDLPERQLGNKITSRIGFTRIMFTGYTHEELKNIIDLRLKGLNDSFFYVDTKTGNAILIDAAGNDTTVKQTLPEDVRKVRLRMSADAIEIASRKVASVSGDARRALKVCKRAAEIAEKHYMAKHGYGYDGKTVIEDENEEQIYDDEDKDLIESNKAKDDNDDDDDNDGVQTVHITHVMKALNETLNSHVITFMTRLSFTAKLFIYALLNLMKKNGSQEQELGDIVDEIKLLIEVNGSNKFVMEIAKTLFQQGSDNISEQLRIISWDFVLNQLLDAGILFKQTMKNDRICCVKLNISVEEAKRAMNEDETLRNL"}, "[2]": {"target": "T2, origin recognition complex (ORC; Orc1-6), S. cerevisiae (S. cerevisiae, UniProt P54784 1-914; P32833 1-620; P54790 1-616; P54791 1-529; P50874 1-479; P38826 …)", "T2 construct": "Orc1, S. cerevisiae, subunit of ORC; BAH domain disordered in the map; Orc2, S. cerevisiae, subunit of ORC; WHD flexible and not visible in the map; Orc3, S. cerevisiae, subunit of ORC; Orc4, S. cerevisiae, subunit of ORC; Orc5, S. cerevisiae, subunit of ORC; Orc6, S. cerevisiae, subunit of ORC; TFIIB-A domain disordered in the map; also called yeast ORC; source: purified as described previously, …", "T2 sequence (P32833 whole entry, chain 2 of 2, the tested form may be a part)": "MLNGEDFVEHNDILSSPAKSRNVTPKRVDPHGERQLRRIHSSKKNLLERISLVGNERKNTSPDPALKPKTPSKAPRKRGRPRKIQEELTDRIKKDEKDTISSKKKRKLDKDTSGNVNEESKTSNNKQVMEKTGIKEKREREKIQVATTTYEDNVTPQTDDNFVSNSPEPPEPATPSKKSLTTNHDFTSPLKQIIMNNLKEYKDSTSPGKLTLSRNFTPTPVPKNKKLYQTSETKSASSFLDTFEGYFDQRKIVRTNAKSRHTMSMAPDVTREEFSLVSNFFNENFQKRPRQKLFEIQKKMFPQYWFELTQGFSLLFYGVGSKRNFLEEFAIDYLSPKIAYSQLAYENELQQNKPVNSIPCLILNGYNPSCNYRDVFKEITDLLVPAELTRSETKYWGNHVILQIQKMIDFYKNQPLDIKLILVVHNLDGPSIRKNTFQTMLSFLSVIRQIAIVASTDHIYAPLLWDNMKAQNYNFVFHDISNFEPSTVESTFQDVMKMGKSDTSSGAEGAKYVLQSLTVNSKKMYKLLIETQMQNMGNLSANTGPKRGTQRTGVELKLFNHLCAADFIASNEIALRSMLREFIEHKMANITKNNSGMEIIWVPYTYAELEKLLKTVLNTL", "T2 sequence (P38826 whole entry, chain 6 of 2, the tested form may be a part)": "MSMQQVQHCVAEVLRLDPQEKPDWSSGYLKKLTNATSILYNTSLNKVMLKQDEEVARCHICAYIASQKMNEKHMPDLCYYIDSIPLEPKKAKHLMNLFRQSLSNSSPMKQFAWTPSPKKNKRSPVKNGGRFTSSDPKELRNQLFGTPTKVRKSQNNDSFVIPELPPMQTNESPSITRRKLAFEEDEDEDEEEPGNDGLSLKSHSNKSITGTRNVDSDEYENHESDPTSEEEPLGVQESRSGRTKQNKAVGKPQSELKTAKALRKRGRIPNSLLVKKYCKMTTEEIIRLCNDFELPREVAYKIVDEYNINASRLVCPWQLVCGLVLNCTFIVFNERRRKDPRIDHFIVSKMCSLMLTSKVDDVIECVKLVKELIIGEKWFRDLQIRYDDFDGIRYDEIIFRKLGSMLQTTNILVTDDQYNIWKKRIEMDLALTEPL"}, "[3]": {"target": "T3, Orc3, subunit of S. cerevisiae ORC (S. cerevisiae, UniProt P54790 1-616)", "T3 construct": "Orc3, S. cerevisiae, as the Orc3 chain of m1; Stood in the assay as a subunit of the whole ORC; written on its own for the contacts seen in the structure; source: purified as part of ORC, as described previously with minor modifications", "T3 sequence": "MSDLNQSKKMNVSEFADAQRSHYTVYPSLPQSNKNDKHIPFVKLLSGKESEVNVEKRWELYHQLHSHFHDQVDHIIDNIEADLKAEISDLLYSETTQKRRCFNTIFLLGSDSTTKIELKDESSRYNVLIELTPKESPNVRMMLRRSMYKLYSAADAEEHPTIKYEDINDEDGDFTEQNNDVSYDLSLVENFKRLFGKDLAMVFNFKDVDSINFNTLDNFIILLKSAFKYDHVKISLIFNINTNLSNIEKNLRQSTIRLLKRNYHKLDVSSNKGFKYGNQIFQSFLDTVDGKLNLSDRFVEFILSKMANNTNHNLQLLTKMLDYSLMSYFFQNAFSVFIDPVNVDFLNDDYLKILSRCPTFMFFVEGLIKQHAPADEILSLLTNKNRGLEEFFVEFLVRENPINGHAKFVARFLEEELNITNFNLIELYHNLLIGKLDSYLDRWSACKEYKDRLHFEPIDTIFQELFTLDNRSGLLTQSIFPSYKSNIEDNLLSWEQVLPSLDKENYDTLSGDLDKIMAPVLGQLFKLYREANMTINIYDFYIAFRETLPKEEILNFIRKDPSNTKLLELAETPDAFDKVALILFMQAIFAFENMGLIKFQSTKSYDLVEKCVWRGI"}, "[4]": {"target": "B3"}},
  "data": [
    {"binder": "B1", "values": [
      {"measurement": "binding result", "setting": "[1]", "result": "binds"},
      {"measurement": "binding result", "setting": "[2]", "result": "binds"}
    ]},
    {"binder": "B2", "values": [
      {"measurement": "binding result", "setting": "[3]", "result": "binds"},
      {"measurement": "binding result", "setting": "[4]", "result": "binds"}
    ]},
    {"binder": "B3", "values": [
      {"measurement": "binding result", "setting": "[1]", "result": "binds"}
    ]}
  ]
}
